# Source: patent US20260167699A1 (Chugai, published 2026)
# Positions count from the first letter of the chain named.
# T1: FcγRIIa(H) (human, UniProt P12318 34-217)
# T1 construct: extracellular domain; also called FcγRIIa H type; 2aH
# T1 sequence: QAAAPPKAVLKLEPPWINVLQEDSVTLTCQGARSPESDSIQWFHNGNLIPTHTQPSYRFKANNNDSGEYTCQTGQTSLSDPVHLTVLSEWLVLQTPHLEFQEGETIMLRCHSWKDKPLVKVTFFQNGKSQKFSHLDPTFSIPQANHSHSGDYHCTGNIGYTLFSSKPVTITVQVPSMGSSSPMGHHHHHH
# T2: FcγRIIa(R) (human, UniProt P12318 34-217)
# T2 construct: extracellular domain; also called FcγRIIa R type; 2aR
# T2 sequence: T1 sequence with H134R
# T3: FcγRIIb (human, UniProt P31994 43-217)
# T3 construct: extracellular domain; also called 2b
# T3 sequence: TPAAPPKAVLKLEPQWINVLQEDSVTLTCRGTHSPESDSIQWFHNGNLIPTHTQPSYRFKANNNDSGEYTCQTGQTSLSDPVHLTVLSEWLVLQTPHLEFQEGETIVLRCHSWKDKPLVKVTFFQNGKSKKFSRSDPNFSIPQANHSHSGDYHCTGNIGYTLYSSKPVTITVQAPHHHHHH
# T4: FcγRIIa(H) extracellular domain, C-terminal His tag (human, UniProt P12318 34-217)
# T4 construct: extracellular domain; also called 2aH
# T4 sequence: T1 sequence
# T5: FcγRIIb extracellular domain, C-terminal His tag (human, UniProt P31994 43-217)
# T5 construct: extracellular domain; also called 2b
# T5 sequence: T3 sequence
# T6: FcγRIIa(R) extracellular domain, C-terminal His tag (human, UniProt P12318 34-217)
# T6 construct: extracellular domain; also called 2aR
# T6 sequence: T1 sequence with H134R
# B1: GpH7-A5/GpH7-B3 variant S267_10E/GpL16-k0 (antibody, human IgG1, kappa)
# heavy 1: not shown
# heavy 2: not shown
# light: DIVMTQSPLSLPVTPGEPASISCQASESLVHSNRNTYLHWYLQKPGQSPQLLIYKVSNRFSGVPDRFSGSGSGTDFTLKISRVEAEDVGVYYCSQNTHVPPTFGQGTKVEIERTVAAPSVFIFPPSDEQLKSGTASVVCLLNNFYPREAKVQWKVDNALQSGNSQESVTEQDSKDSTYSLSSTLTLSKADYEKHKVYACEVTHQGLSSPVTKSFNRGEC
# notes: heterodimerized IgG1, one H chain mutated; also called He Ab
# B2: GpH7-A5/GpH7-B3 variant V266_06M/GpL16-k0 (antibody, human IgG1, kappa)
# heavy 1: not shown
# heavy 2: not shown
# light: B1 light
# notes: as for B1
# B3: GpH7-A5/GpH7-B3 variant V266_08L/GpL16-k0 (antibody, human IgG1, kappa)
# heavy 1: not shown
# heavy 2: not shown
# light: B1 light
# notes: as for B1
# B4: GpH7-A5/GpH7-B3 variant V266_02A/GpL16-k0 (antibody, human IgG1, kappa)
# heavy 1: not shown
# heavy 2: not shown
# light: B1 light
# notes: as for B1
# B5: GpH7-A5/GpH7-B3 variant V266_07I/GpL16-k0 (antibody, human IgG1, kappa)
# heavy 1: not shown
# heavy 2: not shown
# light: B1 light
# notes: as for B1
# B6: GpH7-A5/GpH7-B3 variant S267_19Q/GpL16-k0 (antibody, human IgG1, kappa)
# heavy 1: not shown
# heavy 2: not shown
# light: B1 light
# notes: as for B1
# B7: GpH7-A5/GpH7-B3 variant Q295_12R/GpL16-k0 (antibody, human IgG1, kappa)
# heavy 1: not shown
# heavy 2: not shown
# light: B1 light
# notes: heterodimerized IgG1, one H chain mutated; also called He Ab; copies: 1 + 1 + 2
# B8: GpH7-A5/GpH7-B3 variant Q295_05P/GpL16-k0 (antibody, human IgG1, kappa)
# heavy 1: not shown
# heavy 2: not shown
# light: B1 light
# notes: as for B7
# B9: GpH7-A5/GpH7-B3 variant P271_06M/GpL16-k0 (antibody, human IgG1, kappa)
# heavy 1: not shown
# heavy 2: not shown
# light: B1 light
# notes: as for B7
# B10: GpH7-A5/GpH7-B3 variant Q295_03V/GpL16-k0 (antibody, human IgG1, kappa)
# heavy 1: not shown
# heavy 2: not shown
# light: B1 light
# notes: as for B7
# B11: GpH7-A5/GpH7-B3 variant P271_12R/GpL16-k0 (antibody, human IgG1, kappa)
# heavy 1: not shown
# heavy 2: not shown
# light: B1 light
# notes: as for B7
# B12: GpH7-A5/GpH7-B3 variant P271_18N/GpL16-k0 (antibody, human IgG1, kappa)
# heavy 1: not shown
# heavy 2: not shown
# light: B1 light
# notes: as for B7
# B13: GpH7-A5/GpH7-B3 variant Q295_06M/GpL16-k0 (antibody, human IgG1, kappa)
# heavy 1: not shown
# heavy 2: not shown
# light: B1 light
# notes: as for B7
# B14: GpH7-A5/GpH7-B3 variant Q295_04F/GpL16-k0 (antibody, human IgG1, kappa)
# heavy 1: not shown
# heavy 2: not shown
# light: B1 light
# notes: as for B7
# B15: GpH7-A5/GpH7-B3 variant Q295_02A/GpL16-k0 (antibody, human IgG1, kappa)
# heavy 1: not shown
# heavy 2: not shown
# light: B1 light
# notes: as for B7
# B16: GpH7-A5/GpH7-B3 variant P271_01G/GpL16-k0 (antibody, human IgG1, kappa)
# heavy 1: not shown
# heavy 2: not shown
# light: B1 light
# notes: as for B7
# B17: GpH7-A5/GpH7-B3 variant P271_09D/GpL16-k0 (antibody, human IgG1, kappa)
# heavy 1: not shown
# heavy 2: not shown
# light: B1 light
# notes: as for B7
# B18: GpH7-A5/GpH7-B3 variant P271_03V/GpL16-k0 (antibody, human IgG1, kappa)
# heavy 1: not shown
# heavy 2: not shown
# light: B1 light
# notes: as for B7
# B19: GpH7-A5/GpH7-B3 variant P271_10E/GpL16-k0 (antibody, human IgG1, kappa)
# heavy 1: not shown
# heavy 2: not shown
# light: B1 light
# notes: as for B7
# B20: GpH7-A5/GpH7-B3 variant P271_13S/GpL16-k0 (antibody, human IgG1, kappa)
# heavy 1: not shown
# heavy 2: not shown
# light: B1 light
# notes: as for B7
# B21: GpH7-A5/GpH7-B3 variant Q295_07I/GpL16-k0 (antibody, human IgG1, kappa)
# heavy 1: not shown
# heavy 2: not shown
# light: B1 light
# notes: as for B7
# B22: GpH7-A5/GpH7-B3 variant P271_02A/GpL16-k0 (antibody, human IgG1, kappa)
# heavy 1: not shown
# heavy 2: not shown
# light: B1 light
# notes: as for B7
# B23: GpH7-A5/GpH7-B3 variant P271_11K/GpL16-k0 (antibody, human IgG1, kappa)
# heavy 1: not shown
# heavy 2: not shown
# light: B1 light
# notes: as for B7
# B24: GpH7-A5/GpH7-B3 variant Q295_01G/GpL16-k0 (antibody, human IgG1, kappa)
# heavy 1: not shown
# heavy 2: not shown
# light: B1 light
# notes: as for B7
# B25: GpH7-A5/GpH7-B3 variant P271_08L/GpL16-k0 (antibody, human IgG1, kappa)
# heavy 1: not shown
# heavy 2: not shown
# light: B1 light
# notes: as for B7
# B26: GpH7-A5/GpH7-B3 variant P271_07I/GpL16-k0 (antibody, human IgG1, kappa)
# heavy 1: not shown
# heavy 2: not shown
# light: B1 light
# notes: as for B7
# B27: GpH7-A5/GpH7-B3 variant P271_20W/GpL16-k0 (antibody, human IgG1, kappa)
# heavy 1: not shown
# heavy 2: not shown
# light: B1 light
# notes: as for B7
# B28: GpH7-A5/GpH7-B3 variant P271_19Q/GpL16-k0 (antibody, human IgG1, kappa)
# heavy 1: not shown
# heavy 2: not shown
# light: B1 light
# notes: as for B7
# Target: T1, FcγRIIa(H)
# Assay: SPR (Biacore), binding relative to GpH7-A5/GpH7-B3/GpL16-k0 x100;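 further: surface plasmon resonance at 25 °C, antibody captured on a sensor chip and soluble FcγR flowed over it in HBS-EP+ running buffer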
row,Binder,He/Con 2aH
1,B1,103%
2,B2,84.8%
3,B3,106%
4,B4,69.7%
5,B5,107%
6,B6,61.9%

# Target: T7, FcγRIa (human, UniProt P12314 16-292)
# T7 construct: extracellular domain; also called 1a
# T7 sequence (P12314 other isoform, or with tags, fused parts or gaps): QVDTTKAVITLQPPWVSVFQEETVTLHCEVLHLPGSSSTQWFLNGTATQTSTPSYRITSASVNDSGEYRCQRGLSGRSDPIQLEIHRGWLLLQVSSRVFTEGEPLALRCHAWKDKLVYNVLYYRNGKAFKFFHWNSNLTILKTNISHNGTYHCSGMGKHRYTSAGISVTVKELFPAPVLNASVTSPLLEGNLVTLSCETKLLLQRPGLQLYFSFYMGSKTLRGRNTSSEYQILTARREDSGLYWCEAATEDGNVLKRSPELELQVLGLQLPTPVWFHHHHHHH
# Assay: as above
row,Binder,He/Con 1a
1,B1,102%
2,B2,96.5%
3,B3,94.9%
4,B4,93.8%
5,B5,96.1%
6,B6,99.2%

# Target: T2, FcγRIIa(R)
# Assay: as above
row,Binder,He/Con 2aR
1,B1,188%
2,B2,161%
3,B3,152%
4,B4,88.8%
5,B5,129%
6,B6,145%

# Target: T3, FcγRIIb
# Assay: as above
row,Binder,He/Con 2b
1,B1,398%
2,B2,264%
3,B3,248%
4,B4,85.1%
5,B5,160%
6,B6,228%

# Target: T4, FcγRIIa(H) extracellular domain, …
# Assay: SPR; He Ab vs HeCon Ab (GpH7-A5/GpH7-B3/GpL16-k0)=100;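 further: surface plasmon resonance at 25 °C with the test antibody captured on a sensor chip via antigenic peptide, protein L or protein A/G and FcγR flowed over as analyte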
# Description: (§1) The antibody of interest was analyzed for its interaction with FcγR using a BiaCore™ T100, BiaCore™ A100, or BiaCore™ 4000 surface plasmon resonance system (GE Healthcare Japan Corp.). The running buffer used was HBS-EP+ (GE Healthcare Japan Corp.). The assay temperature was set to 25° C. The sensor chips used were: a chip prepared by immobilizing antigenic peptides onto Series S Sensor Chip CM5 (GE Healthcare Japan Corp.) by the amine coupling method; a chip prepared by immobilizing antigenic peptides biotinylated in advance onto Series S Sensor Chip SA (certified) (GE Healthcare Japan Corp.) through their interaction; a chip prepared by immobilizing protein L (ACTIGEN, BioVision, Inc.) onto Series S Sensor Chip CM5 (GE Healthcare Japan Corp.); and a chip prepared by immobilizing protein A/G (Thermo Fisher Scientific K.K.) onto Series S Sensor Chip CM5 (GE Healthcare Japan Corp.). The antibody of interest was captured onto any of these chips and allowed to interact with FcγR diluted with a running buffer. The antibody captured on the chip was washed off through the reaction of 10 mM glycine-HCl (pH 1.5) to regenerate the chip, which was repetitively used.
row,Binder,He/Con 2aH
1,B7,96.4%
2,B8,118%
3,B9,87.7%
4,B10,106%
5,B11,100%
6,B12,94.5%
7,B13,111%
8,B14,87.4%
9,B15,101%
10,B16,123%
11,B17,80.4%
12,B18,85.4%
13,B19,72.4%
14,B20,83.3%
15,B21,117%
16,B22,88.4%
17,B23,100%
18,B24,62.5%
19,B25,99.4%
20,B26,94.1%
21,B27,88.7%
22,B28,90.7%

# Target: T8, FcγRIa extracellular domain, C-terminal His tag (human, UniProt P12314 16-292)
# T8 construct: extracellular domain; also called 1a
# T8 sequence (P12314 other isoform, or with tags, fused parts or gaps): as above
# Assay: as above
# Description: as §1
row,Binder,He/Con 1a
1,B7,98.8%
2,B8,102%
3,B9,101%
4,B10,102%
5,B11,101%
6,B12,102%
7,B13,102%
8,B14,101%
9,B15,103%
10,B16,103%
11,B17,100%
12,B18,101%
13,B19,101%
14,B20,101%
15,B21,101%
16,B22,102%
17,B23,101%
18,B24,96.1%
19,B25,101%
20,B26,101%
21,B27,101%
22,B28,102%

# Target: T5, FcγRIIb extracellular domain, …
# Assay: as above
# Description: as §1
row,Binder,He/Con 2b
1,B7,73.1%
2,B8,75.7%
3,B9,87%
4,B10,84.9%
5,B11,96.9%
6,B12,105%
7,B13,101%
8,B14,72.6%
9,B15,89.4%
10,B16,217%
11,B17,135%
12,B18,83.8%
13,B19,122%
14,B20,98.2%
15,B21,94.5%
16,B22,98.7%
17,B23,101%
18,B24,51.6%
19,B25,115%
20,B26,86.1%
21,B27,65.1%
22,B28,99.3%

# Target: T6, FcγRIIa(R) extracellular domain, …
# Assay: as above
# Description: as §1
row,Binder,He/Con 2aR
1,B7,82.2%
2,B8,86.6%
3,B9,87.3%
4,B10,90.3%
5,B11,95.8%
6,B12,97.7%
7,B13,101%
8,B14,82.8%
9,B15,91.5%
10,B16,143%
11,B17,109%
12,B18,85.8%
13,B19,102%
14,B20,93.5%
15,B21,97.3%
16,B22,93.9%
17,B23,97.3%
18,B24,60.3%
19,B25,103%
20,B26,88%
21,B27,76.6%
22,B28,95.1%

# Target: T9, FcγRIIIa extracellular domain, C-terminal His tag (human, UniProt P08637 17-208)
# T9 construct: extracellular domain; also called 3a
# T9 sequence (P08637 other isoform, or with tags, fused parts or gaps): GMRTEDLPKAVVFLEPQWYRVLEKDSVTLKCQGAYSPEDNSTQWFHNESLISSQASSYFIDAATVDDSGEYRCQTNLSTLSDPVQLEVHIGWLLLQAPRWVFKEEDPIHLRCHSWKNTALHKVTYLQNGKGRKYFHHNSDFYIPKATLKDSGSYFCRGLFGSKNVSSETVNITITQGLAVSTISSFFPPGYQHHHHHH
# Assay: as above
# Description: as §1
row,Binder,He/Con 3a
1,B7,73.2%
2,B8,74.4%
3,B9,74%
4,B10,86.2%
5,B11,87.6%
6,B12,94%
7,B13,100%
8,B14,75.1%
9,B15,111%
10,B16,119%
11,B17,97.7%
12,B18,73.5%
13,B19,98.2%
14,B20,79.8%
15,B21,101%
16,B22,83.7%
17,B23,92.5%
18,B24,76.6%
19,B25,74.5%
20,B26,80.2%
21,B27,77.8%
22,B28,84.6%
